# Measurements published in US20250163119A1, “COMPOUNDS FOR THE TREATMENT OF DIABETES OR OBESITY” (Eli Lilly and Company, priority 2023, published 2025).
# *1 amine or outer side, *2 acyl side, *3 side chain or, on linkers, in order; H or OH if unused. Where no end group is shown, it is not given here. Side-chain parts run from the residue outwards. [ ]: non-standard residue; d: D form. The star is where a group is joined. C20 diacid = O=C(O)CCCCCCCCCCCCCCCCCCC(=O)*; C18 diacid = O=C(O)CCCCCCCCCCCCCCCCC(=O)*; γGlu = O=C(O)[C@H](CCC(=O)[*:2])N[*:1]; εLys = N[C@@H](CCCCN[*:1])C(=O)[*:2]; pGlu = O=C1CC[C@@H](C(=O)O)N1; αMeL = CC(C)C[C@](C)(N)C(=O)O; PKE = not defined here; AEEA = NCCOCCOCC(=O)O; Aib = CC(C)(N)C(=O)O; Ahx = NCCCCCC(=O)O
# T1: human corticotropin-releasing hormone receptor 1 (CRHR1) (human, UniProt P34998 24-415)
# T1 sequence (looked up): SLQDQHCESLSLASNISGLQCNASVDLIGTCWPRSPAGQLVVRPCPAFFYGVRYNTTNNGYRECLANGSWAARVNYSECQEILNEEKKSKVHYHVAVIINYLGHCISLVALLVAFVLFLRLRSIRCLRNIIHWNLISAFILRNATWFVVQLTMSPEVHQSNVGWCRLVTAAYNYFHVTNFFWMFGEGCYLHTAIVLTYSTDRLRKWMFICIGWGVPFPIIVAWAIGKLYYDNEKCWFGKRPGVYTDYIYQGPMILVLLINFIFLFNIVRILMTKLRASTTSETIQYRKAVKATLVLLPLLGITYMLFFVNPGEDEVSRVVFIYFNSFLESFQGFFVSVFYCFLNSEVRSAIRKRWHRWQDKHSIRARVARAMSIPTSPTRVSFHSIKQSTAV
# B1: polypeptide comprising SEQ ID NO:26 (peptide)
# peptide: [γGlu]GSPSIVTS[αMeL]DVPT[Aib][αMeL]LQKILEQERAEKARQQATEAAEILAQV-NH2
# modifications: not fully specified (residue 1, N-terminus); also: Glu1 linked through its gamma-carboxyl to Gly2
# B2: polypeptide comprising SEQ ID NO:28 (peptide)
# peptide: [γGlu]GSPSIVTS[αMeL]DVPT[Aib][αMeL]LQKILEQERAEKARQQATEAAEILAQV-NH2
# modifications: not fully specified (residue 1, N-terminus); also: Glu1 linked through its gamma-carboxyl to Gly2
# Target: T1, human corticotropin-releasing hormone …
# Test: cell-based or functional assay
binder,measurement,value
H-GSPSIVTS[αMeL]DVPT[Aib][αMeL]LQKILEQERAEKARQQATEAAEILAQV-NH2 [polypeptide comprising SEQ ID NO:27],hCRHR1 cAMP EC50,> 10 µM
Ac-IVTS[αMeL]D[dV]PTG[αMeL]LQIKLEQERAEKARQQAKENTEILAQV-NH2 (not fully specified (residue 29)) [polypeptide comprising SEQ ID NO:32],hCRHR1 cAMP EC50,> 10 µM
Ac-GSPSIVTS[αMeL]DVPT[Aib][αMeL]LQKILEQERAEKARQQAK([γGlu-AEEA-εLys-C18 diacid])EAAEILAQV-NH2 [polypeptide comprising SEQ ID NO:21],hCRHR1 cAMP EC50,> 10 µM
Ac-GSPSIVTS[αMeL]DVPT[Aib][αMeL]LQKILEQERAEKARQQAKEAAEILAQV-NH2 [polypeptide comprising SEQ ID NO:20],hCRHR1 cAMP EC50,> 10 µM
Ac-GSPSIVTS[αMeL]DVPT[Aib][αMeL]LQKILEQERAEKARQQAK([γGlu-εLys-γGlu-εLys-C20 diacid])EAAEILAQV-NH2 [polypeptide comprising SEQ ID NO:18],hCRHR1 cAMP EC50,> 10 µM
[pGlu]GSPSGIVTS[αMeL]DVPT[Aib][αMeL]LQKILEQERAEKARQQAKEAAEILAQV-NH2 [polypeptide comprising SEQ ID NO:23],hCRHR1 cAMP EC50,> 10 µM
Ac-IVTS[αMeL]D[dV]PTG[αMeL]LQIKLEQERAEKARQQAKENTEILAQV-NH2 (not fully specified (residue 29)) [polypeptide comprising SEQ ID NO:31],hCRHR1 cAMP EC50,> 10 µM
Ac-IVTS[αMeL]D[dV]PTG[αMeL]LQIKLEQERAEKARQQAKENTEILAQV-NH2 (not fully specified (residue 29)) [polypeptide comprising SEQ ID NO:40],hCRHR1 cAMP EC50,> 10 µM
Ac-GSPSIVTS[αMeL]DVPT[Aib][αMeL]LQKILEQERAEKARQQAK([γGlu-εLys-AEEA-εLys-C20 diacid])EAAEILAQV-NH2 [polypeptide comprising SEQ ID NO:19],hCRHR1 cAMP EC50,> 10 µM
Ac-IVTS[αMeL]D[dV]PTG[αMeL]LQIKLEQERAEKARQQAKENTEILAQV-NH2 (not fully specified (residue 29)) [polypeptide comprising SEQ ID NO:37],hCRHR1 cAMP EC50,1.7 µM
B1,hCRHR1 cAMP EC50,> 10 µM
Ac-IVTS[αMeL]D[dV]PTG[αMeL]LQIKLEQERAEKARQQAKENTEILAQV-NH2 (not fully specified (residue 29)) [polypeptide comprising SEQ ID NO:35],hCRHR1 cAMP EC50,3 µM
Ac-GSPSIVTS[αMeL]DVPT[Aib][αMeL]LQKILEQERAEKARQQAK([Ahx-AEEA-γGlu-C20 diacid])EAAEILAQV-NH2 [polypeptide comprising SEQ ID NO:4],hCRHR1 cAMP EC50,> 10 µM
Ac-GSPSIVTS[αMeL]DVPT[Aib][αMeL]LQKILEQERAEKARQQAK([AEEA-PKE-γGlu-C20 diacid])EAAEILAQV-NH2 (reading uncertain) [polypeptide comprising SEQ ID NO:3],hCRHR1 cAMP EC50,> 10 µM
Ac-IVTS[αMeL]D[dV]PTG[αMeL]LQIKLEQERAEKARQQAKENTEILAQV-NH2 (not fully specified (residue 29)) [polypeptide comprising SEQ ID NO:33],hCRHR1 cAMP EC50,1.1 µM
B2,hCRHR1 cAMP EC50,> 10 µM
Ac-IVTS[αMeL]D[dV]PTG[αMeL]LQIKLEQERAEKARQQAKENTEILAQV-NH2 (not fully specified (residue 29)) [polypeptide comprising SEQ ID NO:36],hCRHR1 cAMP EC50,1.8 µM
Ac-IVTS[αMeL]D[dV]PTG[αMeL]LQIKLEQERAEKARQQAKENTEILAQV-NH2 (not fully specified (residue 29)) [polypeptide comprising SEQ ID NO:39],hCRHR1 cAMP EC50,3.7 µM
[pGlu]GSPSGIVTS[αMeL]DVPT[Aib][αMeL]LQKILEQERAEKARQQAK([γGlu-AEEA-εLys-C18 diacid])EAAEILAQV-NH2 [polypeptide comprising SEQ ID NO:24],hCRHR1 cAMP EC50,> 10 µM
Ac-IVTS[αMeL]D[dV]PTG[αMeL]LQIKLEQERAEKARQQAKENTEILAQV-NH2 (not fully specified (residue 29)) [polypeptide comprising SEQ ID NO:34],hCRHR1 cAMP EC50,> 10 µM
Ac-IVTS[αMeL]D[dV]PTG[αMeL]LQIKLEQERAEKARQQAKENTEILAQV-NH2 (not fully specified (residue 29)) [polypeptide comprising SEQ ID NO:30],hCRHR1 cAMP EC50,> 10 µM
Ac-IVTS[αMeL]D[dV]PTG[αMeL]LQIKLEQERAEKARQQAKENTEILAQV-NH2 (not fully specified (residue 29)) [polypeptide comprising SEQ ID NO:38],hCRHR1 cAMP EC50,1.1 µM
Ac-GSPSIVTS[αMeL]DVPT[Aib][αMeL]LQKILEQERAEKARQQAK([γGlu-AEEA-AEEA-εLys-C20 diacid])EAAEILAQV-NH2 [polypeptide comprising SEQ ID NO:17],hCRHR1 cAMP EC50,> 10 µM
